{"source": "patent US20170275666A1", "about": "“Methods for Preparing Rebaudioside I and Uses” (The Coca-Cola Company, priority 2014, published 2017)", "molecules": {"B1": {"name": "UGT76G1var48: UGT76G1 variant, mutations V394I_Y397E_Q432E (protein, UniProt Q6VAB4 1-458, looked up, variant V394I Y397E Q432E)", "UDP-glycosyltransferase 76G1": "MENKTETTVRRRRRIILFPVPFQGHINPILQLANVLYSKGFSITIFHTNFNKPKTSNYPHFTFRFILDNDPQDERISNLPTHGPLAGMRIPIINEHGADELRRELELLMLASEEDEEVSCLITDALWYFAQSVADSLNLRRLVLMTSSLFNFHAHVSLPQFDELGYLDPDDKTRLEEQASGFPMLKVKDIKSAYSNWQILKEILGKMIKQTKASSGVIWNSFKELEESELETVIREIPAPSFLIPLPKHLTASSSSLLDHDRTVFQWLDQQPPSSVLYVSFGSTSEVDEKDFLEIARGLVDSKQSFLWVVRPGFVKGSTWVEPLPDGFLGERGRIVKWVPQQEVLAHGAIGAFWTHSGWNSTLESVCEGVPMIFSDFGLDQPLNARYMSDVLKIGVELENGWERGEIANAIRRVMVDEEGEYIRQNARVLKEKADVSLMKGGSSYESLESLVSYISSL"}, "B2": {"name": "UGT76G1var54: UGT76G1 variant, mutations E229A_T284L_R334K_Q342E (protein, UniProt Q6VAB4 1-458, looked up, variant E229A T284L R334K Q342E)", "UDP-glycosyltransferase 76G1": "B1 UDP-glycosyltransferase 76G1 with E229A, T284L, R334K, Q342E, I394V, E397Y, E432Q"}, "B3": {"name": "UGT76G1var63: UGT76G1 variant, mutations F314S_R334H_Q342K_L379G (protein, UniProt Q6VAB4 1-458, looked up, variant F314S R334H Q342K L379G)", "UDP-glycosyltransferase 76G1": "B1 UDP-glycosyltransferase 76G1 with F314S, R334H, Q342K, L379G, I394V, E397Y, E432Q"}, "B4": {"name": "UGT76G1var52: UGT76G1 variant, mutations D301N_I373L_F377C_I407V (protein, UniProt Q6VAB4 1-458, looked up, variant D301N I373L F377C I407V)", "UDP-glycosyltransferase 76G1": "B1 UDP-glycosyltransferase 76G1 with D301N, I373L, F377C, I394V, E397Y, I407V, E432Q"}, "B5": {"name": "UGT76G1var57: UGT76G1 variant, mutations S241I_T263S_L379G_A385T (protein, UniProt Q6VAB4 1-458, looked up, variant S241I T263S L379G A385T)", "UDP-glycosyltransferase 76G1": "B1 UDP-glycosyltransferase 76G1 with S241I, T263S, L379G, A385T, I394V, E397Y, E432Q"}, "B6": {"name": "UGT76G1var51: UGT76G1 variant, mutations K303G_S357C_S389E_V396F (protein, UniProt Q6VAB4 1-458, looked up, variant K303G S357C S389E V396F)", "UDP-glycosyltransferase 76G1": "B1 UDP-glycosyltransferase 76G1 with K303G, S357C, S389E, I394V, V396F, E397Y, E432Q"}, "B7": {"name": "UGT76G1var49: UGT76G1 variant, mutations F41L_Q266E_T284I_Y397Q (protein, UniProt Q6VAB4 1-458, looked up, variant F41L Q266E T284I Y397Q)", "UDP-glycosyltransferase 76G1": "B1 UDP-glycosyltransferase 76G1 with F41L, Q266E, T284I, I394V, E397Q, E432Q"}, "B8": {"name": "UGT76G1var50: UGT76G1 variant, mutations F22Y_V310I_S375M_F377C (protein, UniProt Q6VAB4 1-458, looked up, variant F22Y V310I S375M F377C)", "UDP-glycosyltransferase 76G1": "B1 UDP-glycosyltransferase 76G1 with F22Y, V310I, S375M, F377C, I394V, E397Y, E432Q"}, "B9": {"name": "UGT76G1var3: UGT76G1 variant, mutations I295T_S357C_V366I (protein, UniProt Q6VAB4 1-458, looked up, variant I295T S357C V366I)", "UDP-glycosyltransferase 76G1": "B1 UDP-glycosyltransferase 76G1 with I295T, S357C, V366I, I394V, E397Y, E432Q"}, "B10": {"name": "UGT76G1var66: UGT76G1 variant (round 1), mutations F265L_V310I_V366I_A385T (protein, UniProt Q6VAB4 1-458, looked up, variant F265L V310I V366I A385T)", "UDP-glycosyltransferase 76G1": "B1 UDP-glycosyltransferase 76G1 with F265L, V310I, V366I, A385T, I394V, E397Y, E432Q"}, "B11": {"name": "UGT76G1var60: UGT76G1 variant, mutations E231A_L243A_V279I_S357N (protein, UniProt Q6VAB4 1-458, looked up, variant E231A L243A V279I S357N)", "UDP-glycosyltransferase 76G1": "B1 UDP-glycosyltransferase 76G1 with E231A, L243A, V279I, S357N, I394V, E397Y, E432Q"}, "B12": {"name": "UGT76G1var61: UGT76G1 variant, mutations I43V_F265I_Q266S_L379A (protein, UniProt Q6VAB4 1-458, looked up, variant I43V F265I Q266S L379A)", "UDP-glycosyltransferase 76G1": "B1 UDP-glycosyltransferase 76G1 with I43V, F265I, Q266S, L379A, I394V, E397Y, E432Q"}, "B13": {"name": "UGT76G1var62: UGT76G1 variant, mutations L243P_P272A_V394I_V396F (protein, UniProt Q6VAB4 1-458, looked up, variant L243P P272A V394I V396F)", "UDP-glycosyltransferase 76G1": "B1 UDP-glycosyltransferase 76G1 with L243P, P272A, V396F, E397Y, E432Q"}, "B14": {"name": "UGT76G1var64: UGT76G1 variant, mutations F22L_A239I_R334H_I407V (protein, UniProt Q6VAB4 1-458, looked up, variant F22L A239I R334H I407V)", "UDP-glycosyltransferase 76G1": "B1 UDP-glycosyltransferase 76G1 with F22L, A239I, R334H, I394V, E397Y, I407V, E432Q"}, "B15": {"name": "UGT76G1var53: UGT76G1 variant, mutations R334K_A352G_P382M_S389E (protein, UniProt Q6VAB4 1-458, looked up, variant R334K A352G P382M S389E)", "UDP-glycosyltransferase 76G1": "B1 UDP-glycosyltransferase 76G1 with R334K, A352G, P382M, S389E, I394V, E397Y, E432Q"}, "B16": {"name": "UGT76G1var58: UGT76G1 variant, mutations S357C_S375M_N409R_Q425E (protein, UniProt Q6VAB4 1-458, looked up, variant S357C S375M N409R Q425E)", "UDP-glycosyltransferase 76G1": "B1 UDP-glycosyltransferase 76G1 with S357C, S375M, I394V, E397Y, N409R, Q425E, E432Q"}, "B17": {"name": "UGT76G1var56: UGT76G1 variant, mutations L246F_A352G_S357N_Q432E (protein, UniProt Q6VAB4 1-458, looked up, variant L246F A352G S357N Q432E)", "UDP-glycosyltransferase 76G1": "B1 UDP-glycosyltransferase 76G1 with L246F, A352G, S357N, I394V, E397Y"}, "B18": {"name": "UGT76G1var59: UGT76G1 variant, mutations I335V_K393G_V394I_Y397Q (protein, UniProt Q6VAB4 1-458, looked up, variant I335V K393G V394I Y397Q)", "UDP-glycosyltransferase 76G1": "B1 UDP-glycosyltransferase 76G1 with I335V, K393G, E397Q, E432Q"}, "B19": {"name": "UGT76G1var65: UGT76G1 variant, mutations A33G_A239V_P382M_Q425E (protein, UniProt Q6VAB4 1-458, looked up, variant A33G A239V P382M Q425E)", "UDP-glycosyltransferase 76G1": "B1 UDP-glycosyltransferase 76G1 with A33G, A239V, P382M, I394V, E397Y, Q425E, E432Q"}, "B20": {"name": "UGT76G1var55: UGT76G1 variant, mutations I295M_Q342E_V366I_N409R (protein, UniProt Q6VAB4 1-458, looked up, variant I295M Q342E V366I N409R)", "UDP-glycosyltransferase 76G1": "B1 UDP-glycosyltransferase 76G1 with I295M, Q342E, V366I, I394V, E397Y, N409R, E432Q"}}, "note": "Positions count from the first letter of the chain named.", "data": [{"assay": "Directed evolution of UGT76G1, conversion of Rebaudioside D to Rebaudioside M (round 1)", "assay_type": "biochemical", "conditions": "0.5 mM Rebaudioside D, 2.5 mM UDP-Glucose, 100 μL fresh lysate, 30° C., pH 7.2", "procedure,_shortened": "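Conversion to Reb M and initial rate were measured by HPLC with CAD at 2, 4, 7 and 24 h, with reactions run at 30° C in 50 mM phosphate pH 7.2 containing 0.5 mM Reb D, 2.5 mM UDP-glucose and 3 mM MgCl2. Enzyme source: fresh lysates of E. coli BL21(DE3) expressing 3-5-mutation UGT76G1 variants.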", "units": {"Conversion Reb D to Reb M after 24 h (%)": "%", "initial rate (Reb M area/min)": "Reb M area/min"}, "values": [{"molecule": "B1", "Conversion Reb D to Reb M after 24 h (%)": 47.6, "initial rate (Reb M area/min)": "3.8E+07"}, {"molecule": "B2", "Conversion Reb D to Reb M after 24 h (%)": 0.7, "initial rate (Reb M area/min)": "4.3E+05"}, {"molecule": "B3", "Conversion Reb D to Reb M after 24 h (%)": 3.4, "initial rate (Reb M area/min)": "1.2E+06"}, {"molecule": "B4", "Conversion Reb D to Reb M after 24 h (%)": 12.9, "initial rate (Reb M area/min)": "4.6E+06"}, {"molecule": "B5", "Conversion Reb D to Reb M after 24 h (%)": 0.8, "initial rate (Reb M area/min)": "1.5E+05"}, {"molecule": "B6", "Conversion Reb D to Reb M after 24 h (%)": 18.7, "initial rate (Reb M area/min)": "9.5E+06"}, {"molecule": "B7", "Conversion Reb D to Reb M after 24 h (%)": 2.6, "initial rate (Reb M area/min)": "1.1E+06"}, {"molecule": "B8", "Conversion Reb D to Reb M after 24 h (%)": 1.9, "initial rate (Reb M area/min)": "7.9E+05"}, {"molecule": "B9", "Conversion Reb D to Reb M after 24 h (%)": 9.6, "initial rate (Reb M area/min)": "1.6E+06"}, {"molecule": "B10", "Conversion Reb D to Reb M after 24 h (%)": 0.8, "initial rate (Reb M area/min)": "3.7E+05"}, {"molecule": "B11", "Conversion Reb D to Reb M after 24 h (%)": 0.5, "initial rate (Reb M area/min)": "9.5E+04"}, {"molecule": "B12", "Conversion Reb D to Reb M after 24 h (%)": 6.4, "initial rate (Reb M area/min)": "2.0E+06"}, {"molecule": "B13", "Conversion Reb D to Reb M after 24 h (%)": 0.1, "initial rate (Reb M area/min)": "3.4E+04"}, {"molecule": "B14", "Conversion Reb D to Reb M after 24 h (%)": 0.3, "initial rate (Reb M area/min)": "3.1E+04"}, {"molecule": "B15", "Conversion Reb D to Reb M after 24 h (%)": 9.3, "initial rate (Reb M area/min)": "4.1E+06"}, {"molecule": "B16", "Conversion Reb D to Reb M after 24 h (%)": 7.5, "initial rate (Reb M area/min)": "2.2E+06"}, {"molecule": "B17", "Conversion Reb D to Reb M after 24 h (%)": 0.4, "initial rate (Reb M area/min)": "4.1E+04"}, {"molecule": "B18", "Conversion Reb D to Reb M after 24 h (%)": 33.0, "initial rate (Reb M area/min)": "2.7E+07"}, {"molecule": "B19", "Conversion Reb D to Reb M after 24 h (%)": 1.2, "initial rate (Reb M area/min)": "3.3E+05"}, {"molecule": "B20", "Conversion Reb D to Reb M after 24 h (%)": 1.0, "initial rate (Reb M area/min)": "2.2E+05"}]}]}
